Source: PMC3462613
Where two headings read alike, the source gives them in different places.

How the values were obtained:
Assay in all cases: fluorescence polarisation
[1] = biological target: FITC-labelled SMN^26–51 D44V (human) (UniProt Q16637)
[2] = biological target: FITC-labelled SMN^26–51, wild type (human) (UniProt Q16637)
[3] = biological target: FITC-labelled SMN^26–51, wild type (human) (UniProt Q16637); remark: listed apart in the source
[4] = biological target: FITC-labelled SMN^26–51 D44V (human) (UniProt Q16637); remark: listed apart in the source
[5] = biological target: FITC-labelled SMN^26–51, wild type (human) (UniProt Q16637); remark: listed apart in the source
[6] = biological target: FITC-labelled SMN^26–51, wild type (human) (UniProt Q16637); remark: listed apart in the source
[7] = biological target: FITC-labelled SMN^26–51, wild type (human) (UniProt Q16637); remark: listed apart in the source
[8] = biological target: FITC-labelled SMN^26–51 A46N (human) (UniProt Q16637)
[9] = biological target: FITC-labelled SMN^26–51 D35A (human) (UniProt Q16637)
[10] = biological target: FITC-labelled SMN^26–51 D36A (human) (UniProt Q16637)
[11] = biological target: FITC-labelled SMN^26–51 D44A (human) (UniProt Q16637)
[12] = biological target: FITC-labelled SMN^26–51 D44V (human) (UniProt Q16637); remark: listed apart in the source
[13] = biological target: FITC-labelled SMN^26–51 K41A (human) (UniProt Q16637)
[14] = biological target: FITC-labelled SMN^26–51 L39A (human) (UniProt Q16637)
[15] = biological target: FITC-labelled SMN^26–51 W34A (human) (UniProt Q16637)
[16] = biological target: FITC-labelled SMN^26–51 Y43A (human) (UniProt Q16637)
[17] = biological target: FITC-labelled SMN^26–51, wild type (human) (UniProt Q16637); remark: listed apart in the source
[18] = biological target: SMN^26–51 peptide containing phosphoserine at positions 28 and 31 (human) (UniProt Q16637)

Substance: Gemin2^95–280 (domain or fragment)
- Kd [1]: 1.5 nM
- Kd [2]: 2.3 nM
- Kd [3]: 180 nM
- Kd [4]: 1800 nM
- Kd [5]: 2.2 nM
- Kd [6]: 5.2 nM
- Kd [7]: 2.4 nM
- Kd [8]: 42 nM
- Kd [9]: 6.8 nM
- Kd [10]: 8.3 nM
- Kd [11]: 5.3 nM
- Kd [12]: 8.4 nM
- Kd [13]: 4.8 nM
- Kd [14]: 74 nM
- Kd [15]: 16 nM
- Kd [16]: 510 nM
- Kd [17]: 3.3 nM
- Kd [18]: 4.2 nM

Substance: Gemin2 (12–280) (natural protein)
- Kd [17]: 7 nM
